The source of these data is paper PMC4356369, “An intermolecular binding mechanism involving multiple LysM domains mediates carbohydrate recognition by an endopeptidase” (Acta Crystallographica Section D: Biological Crystallography, 2015).

Usually stoichiometry N stands for the number of molecules, sites or subunits per partner or assembly.

Data set [1] addresses P60_tth (TTHA0266), NlpC/P60 D,L-endopeptidase from Thermus thermophilus, full-length protein (Thermus thermophilus) (UniProt Q5SLM7). Description: SAXS; small-angle X-ray scattering in solution, ESRF beamline BM-29; molecular weight estimated from the scattering; models evaluated with CRYSOL and CORAL.
Data set [2] has the same target. In words: SEC; Superdex 75 10/300 GL, 50 mM Tris-HCl pH 8, 200 mM NaCl, 5 mM beta-mercaptoethanol, 0.5 ml/min; apparent molecular weight from a calibration curve. (In general: Size exclusion chromatography separates by hydrodynamic size, large species first.)
Data set [3] concerns the target T1, P60_tth (TTHA0266), full-length (Thermus thermophilus, UniProt Q5SLM7, F76A/R80A/E99A).
T1 construct: full-length P60_tth (LysM1, LysM2, NlpC/P60 catalytic domain); Trx/His/S-tag fusion cut by TEV, expressed in E. coli BL21 Rosetta 2 (DE3)
In words: microscale thermophoresis. The data set is classed as binding. Particulars: labelled protein (200 nM); 50 mM phosphate pH 7.5, 0.1% Tween 20; incubated 1 h at 60°C, measured at room temperature; P60_tth_LysM2_mut. In general terms: In MST a laser heats a spot of the sample, and binding alters the fluorescence response.

The target in data set [4] is T2, P60_tth (TTHA0266), full-length (Thermus thermophilus, UniProt Q5SLM7).
T2 construct: full-length P60_tth (LysM1, LysM2, NlpC/P60 catalytic domain); Trx/His/S-tag fusion cut by TEV, expressed in E. coli BL21 Rosetta 2 (DE3)
In words: microscale thermophoresis. It counts as binding. Particulars: labelled protein (200 nM); 50 mM phosphate pH 7.5, 0.1% Tween 20; incubated 1 h at 60°C, measured at room temperature; read-out: apparent Kd.

For the next data set, the target named is T3, P60_2LysM (Thermus thermophilus, UniProt Q5SLM7).
T3 construct: gene TTHA0266; LysM1-LysM2 only, no catalytic domain; Trx/His/S-tag fusion cut by TEV, expressed in E. coli
Description: X-ray co-crystal structure, […] Å. Particulars: co-crystallized at protein:sugar 1:2; LysM1 and LysM2 of symmetry-related monomers share one ligand; pH 6.5. It counts as binding.

In data set [5] the target is T4, P60_tth (TTHA0266), full-length (Thermus thermophilus, UniProt Q5SLM7, Y28A/R32A/F50A/Q53A).
T4 construct: full-length P60_tth (LysM1, LysM2, NlpC/P60 catalytic domain); Trx/His/S-tag fusion cut by TEV, expressed in E. coli BL21 Rosetta 2 (DE3)
Description: microscale thermophoresis. It counts as binding. The note with it: labelled protein (200 nM); 50 mM phosphate pH 7.5, 0.1% Tween 20; incubated 1 h at 60°C, measured at room temperature; P60_tth_LysM1_mut (Nus/His/S-tag fusion, tags cleaved).

For data set [6], the target named is P60_cata (catalytic domain of P60_tth alone) (Thermus thermophilus). Description: SAXS; small-angle X-ray scattering in solution, ESRF beamline BM-29; molecular weight estimated from the scattering; models evaluated with CRYSOL and CORAL.
The target is the same in data set [7]. Description: SEC; Superdex 75 10/300 GL, 50 mM Tris-HCl pH 8, 200 mM NaCl, 5 mM beta-mercaptoethanol, 0.5 ml/min; apparent molecular weight from a calibration curve.
Data set [8] deals with the molecule itself. The data set is described as above.

T4 sequence (Q5SLM7 entry or part of it Y28A/R32A/F50A/Q53A): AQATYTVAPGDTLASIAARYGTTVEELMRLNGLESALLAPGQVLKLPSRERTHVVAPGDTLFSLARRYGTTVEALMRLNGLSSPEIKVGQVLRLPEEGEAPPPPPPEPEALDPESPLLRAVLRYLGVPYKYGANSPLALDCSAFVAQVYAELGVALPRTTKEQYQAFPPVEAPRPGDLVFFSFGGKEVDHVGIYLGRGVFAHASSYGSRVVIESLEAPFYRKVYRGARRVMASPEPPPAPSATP
T1 sequence (Q5SLM7 entry or part of it F76A/R80A/E99A): as the sequence (Q5SLM7 entry or part of it Y28A/R32A/F50A/Q53A) above, with A14Y, A18R, A36F, A39Q, F62A, R66A, E85A counted along it
T3 sequence (Q5SLM7 15-114 limits assumed): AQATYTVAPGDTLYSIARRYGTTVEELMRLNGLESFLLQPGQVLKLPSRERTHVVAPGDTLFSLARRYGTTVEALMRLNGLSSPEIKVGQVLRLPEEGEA
T2 sequence (Q5SLM7 15-258): as the sequence (Q5SLM7 entry or part of it Y28A/R32A/F50A/Q53A) above, with A14Y, A18R, A36F, A39Q counted along it

“P60_tth (TTHA0266), NlpC/P60 D,L-endopeptidase from Thermus thermophilus, full-length protein (from UniProt Q5SLM7 1-258) (enzyme)”: the stoichiometry N in [1] and in data set [2] was 2 in each case.
In the case of `CC(=O)N[C@H]1[C@H](O[C@H]2[C@H](O)[C@@H](NC(C)=O)[C@H](O[C@H]3[C@H](O)[C@@H](NC(C)=O)C(O)O[C@@H]3CO)O[C@@H]2CO)O[C@H](CO)[C@@H](O[C@@H]2O[C@H](CO)[C@@H](O[C@@H]3O[C@H](CO)[C@@H](O[C@@H]4O[C@H](CO)[C@@H](O)[C@H](O)[C@H]4NC(C)=O)[C@H](O)[C@H]3NC(C)=O)[C@H](O)[C@H]2NC(C)=O)[C@@H]1O` (stereo partly drawn) [chitohexaose], the results for the Kd in [3], in data set [4] and in [5] were 292 ± 86.5 µM, 90 ± 19.8 µM and 321 ± 112 µM, respectively. The “X-ray co-crystal structure, 1.75 Å” value on P60_2LysM is given as “solved the crystal structure of P60_2LysM bound to chitohexaose”.
Regarding “P60_cata (catalytic domain of P60_tth alone) (domain or fragment)”, the stoichiometry N in data set [6] and in data set [7] was 2 throughout.

B1: P60_1LysM (P60_tth with the N-terminal LysM domain deleted) (domain or fragment, Thermus thermophilus, UniProt Q5SLM7 62-258, looked up)
chain: SRERTHVVAPGDTLFSLARRYGTTVEALMRLNGLSSPEIKVGQVLRLPEEGEAPPPPPPEPEALDPESPLLRAVLRYLGVPYKYGANSPLALDCSAFVAQVYAELGVALPRTTKEQYQAFPPVEAPRPGDLVFFSFGGKEVDHVGIYLGRGVFAHASSYGSRVVIESLEAPFYRKVYRGARRVMASPEPPPAPSATP
notes: TTHA0266 (P60_tth) of Thermus thermophilus without the N-terminal LysM domain (LysM2, linker and catalytic domain); predicted molecular weight 21.4 kDa; with Val69 and Thr74 of the text this puts the first residue at Ser62; The start was worked out from the translated primer and the residue numbers printed for LysM2; the C-terminus is as in the full-length construct; source: E. coli BL21 Rosetta …
Take B1: the “stoichiometry N” value in [8] came to 2.
